Source: article doi:10.1101/2025.08.25.672096 (bioRxiv, 2025)

T1: GST::KIF14(901-1648) (UniProt Q15058 901-1648)
T1 sequence (looked up): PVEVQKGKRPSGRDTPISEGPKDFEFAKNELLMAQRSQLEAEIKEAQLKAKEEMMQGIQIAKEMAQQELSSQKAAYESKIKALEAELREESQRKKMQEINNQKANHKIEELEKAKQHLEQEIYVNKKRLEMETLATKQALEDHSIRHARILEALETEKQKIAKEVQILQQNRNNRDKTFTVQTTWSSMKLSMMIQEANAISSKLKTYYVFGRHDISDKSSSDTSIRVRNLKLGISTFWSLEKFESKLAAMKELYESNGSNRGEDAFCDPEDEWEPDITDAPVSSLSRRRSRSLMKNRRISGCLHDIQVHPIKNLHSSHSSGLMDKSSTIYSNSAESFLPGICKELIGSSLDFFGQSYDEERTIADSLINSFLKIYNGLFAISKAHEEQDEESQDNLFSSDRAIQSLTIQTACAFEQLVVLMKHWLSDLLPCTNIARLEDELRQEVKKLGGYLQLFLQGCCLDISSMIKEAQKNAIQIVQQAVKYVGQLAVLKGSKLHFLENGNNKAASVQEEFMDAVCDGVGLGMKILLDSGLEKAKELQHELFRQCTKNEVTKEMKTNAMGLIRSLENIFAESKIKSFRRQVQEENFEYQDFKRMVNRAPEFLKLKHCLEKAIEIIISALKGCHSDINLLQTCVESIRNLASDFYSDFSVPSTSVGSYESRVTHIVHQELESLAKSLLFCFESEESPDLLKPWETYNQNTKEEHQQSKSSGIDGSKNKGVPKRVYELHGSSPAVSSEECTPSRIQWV

B1: MBP::CIT-K(420-585) (domain or fragment, human, UniProt O14578-4 420-585, looked up)
chain: SYSKALGILGRSESVVSGLDSPAKTSSMEKKLLIKSKELQDSQDKCHKMEQEMTRLHRRVSEVEAVLSQKEVELKASETQRSLLEQDLATYITECSSLKRSLEQARMEVSQEDDKALQLLHDIREQSRKLQEIKEQEYQAQVEEMRLMMNQLEEDLVSARRRSDLY
B2: MBP::CIT-K(420-585) phosphorylated in vitro by CDK1-cyclin B (pS440) (domain or fragment, human, UniProt O14578-4 420-585, looked up)
chain: B1 chain
modifications: phosphoserine at 440 (detected with the CIT-K pS440 antibody)

Molecular target: T1, GST::KIF14(901-1648)
Assay: pull-down

Binder	binding result
B1	binds
B2	binds
